Laboratory results from patent US20250066503A1, “CELL INJURY INDUCING THERAPEUTIC DRUG FOR USE IN CANCER THERAPY” (CHUGAI SEIYAKU KABUSHIKI KAISHA, priority 2016, published 2025).
Numbering of substitutions follows the chain as printed.

B1: H0610-G1dh/none-Hi-Kn010G3/L0139-k0 (antibody, V domains shown)
VH: QVQLVQSGAEVKKPGASVKVSCKASGYTFTDYEMHWIRQPPGQGLEWIGAIDGKTPDTAYSQKFKGRVTLTADKSTSTAYMELSSLTSEDTAVYYCTRFYSYTYWGQGTLVTVSS
VL: DIVMTQSPLSLPVTPGEPASISCRSSQSLVHSNRNTYLHWYQQKPGQAPRLLIYKVSNRFIGVPDRFSGSGSGTDFTLKISRVEAEDVGVYYCGQGTQVPYTFGQGTKLEIK
notes: one-arm
B2: H0610-G1dh/none-Hi-Kn010G3/L0140-k0 (antibody, V domains shown)
VH: B1 VH
VL: B1 VL with I61L
notes: one-arm
B3: H0610-G1dh/none-Hi-Kn010G3/L0141-k0 (antibody, V domains shown)
VH: B1 VH
VL: B1 VL with I61M
notes: one-arm
B4: H0610-G1dh/none-Hi-Kn010G3/L0143-k0 (antibody, V domains shown)
VH: B1 VH
VL: B1 VL with I61P
notes: one-arm
B5: H0610-G1dh/none-Hi-Kn010G3/L0144-k0 (antibody, V domains shown)
VH: B1 VH
VL: B1 VL with I61Q
notes: one-arm
B6: H0610-G1dh/none-Hi-Kn010G3/L0145-k0 (antibody, V domains shown)
VH: B1 VH
VL: B1 VL with I61R
notes: one-arm
B7: H0610-G1dh/none-Hi-Kn010G3/L0147-k0 (antibody, V domains shown)
VH: B1 VH
VL: B1 VL with I61V
notes: one-arm
B8: H0610-G1dh/none-Hi-Kn010G3/L0148-k0 (antibody, V domains shown)
VH: B1 VH
VL: B1 VL with I61W
notes: one-arm
B9: H0610-G1dh/none-Hi-Kn010G3/L0149-k0 (antibody, V domains shown)
VH: B1 VH
VL: B1 VL with I61S, G94A
notes: one-arm
B10: H0610-G1dh/none-Hi-Kn010G3/L0151-k0 (antibody, V domains shown)
VH: B1 VH
VL: B1 VL with I61S, G94E
notes: one-arm
B11: H0610-G1dh/none-Hi-Kn010G3/L0152-k0 (antibody, V domains shown)
VH: B1 VH
VL: B1 VL with I61S, G94F
notes: one-arm
B12: H0610-G1dh/none-Hi-Kn010G3/L0154-k0 (antibody, V domains shown)
VH: B1 VH
VL: B1 VL with I61S, G94I
notes: one-arm
B13: H0610-G1dh/none-Hi-Kn010G3/L0155-k0 (antibody, V domains shown)
VH: B1 VH
VL: B1 VL with I61S, G94L
notes: one-arm
B14: H0610-G1dh/none-Hi-Kn010G3/L0157-k0 (antibody, V domains shown)
VH: B1 VH
VL: B1 VL with I61S, G94N
notes: one-arm
B15: H0610-G1dh/none-Hi-Kn010G3/L0160-k0 (antibody, V domains shown)
VH: B1 VH
VL: B1 VL with I61S, G94T
notes: one-arm
B16: H0610-G1dh/none-Hi-Kn010G3/L0161-k0 (antibody, V domains shown)
VH: B1 VH
VL: B1 VL with I61S, G94V
notes: one-arm
B17: H0610-G1dh/none-Hi-Kn010G3/L0163-k0 (antibody, V domains shown)
VH: B1 VH
VL: B1 VL with I61S, G94Y
notes: one-arm
B18: H0610-G1dh/none-Hi-Kn010G3/L0167-k0 (antibody, V domains shown)
VH: B1 VH
VL: B1 VL with I61S, G96S
notes: one-arm
B19: H0610-G1dh/none-Hi-Kn010G3/L0168-k0 (antibody, V domains shown)
VH: B1 VH
VL: B1 VL with I61S, G96T
notes: one-arm
B20: H0610-G1dh/none-Hi-Kn010G3/L0173-k0 (antibody, V domains shown)
VH: B1 VH
VL: B1 VL with I61S, V99F
notes: one-arm
B21: H0610-G1dh/none-Hi-Kn010G3/L0175-k0 (antibody, V domains shown)
VH: B1 VH
VL: B1 VL with I61S, V99H
notes: one-arm
B22: H0610-G1dh/none-Hi-Kn010G3/L0180-k0 (antibody, V domains shown)
VH: B1 VH
VL: B1 VL with I61S, V99N
notes: one-arm
B23: H0610-G1dh/none-Hi-Kn010G3/L0181-k0 (antibody, V domains shown)
VH: B1 VH
VL: B1 VL with I61S, V99P
notes: one-arm
B24: H0610-G1dh/none-Hi-Kn010G3/L0186-k0 (antibody, V domains shown)
VH: B1 VH
VL: B1 VL with I61S, V99W
notes: one-arm
B25: H0610-G1dh/none-Hi-Kn010G3/L0187-k0 (antibody, V domains shown)
VH: B1 VH
VL: B1 VL with I61S, V99Y
notes: one-arm
B26: H0610-G1dh/none-Hi-Kn010G3/L0200-k0 (antibody, V domains shown)
VH: B1 VH
VL: B1 VL with S25P, L29P, I61S
notes: one-arm
B27: H0610-G1dh/none-Hi-Kn010G3/L0202-k0 (antibody, V domains shown)
VH: B1 VH
VL: B1 VL with L29P, N35W, I61S
notes: one-arm
B28: H0610-G1dh/none-Hi-Kn010G3/L0205-k0 (antibody, V domains shown)
VH: B1 VH
VL: B1 VL with L29P, I61W
notes: one-arm
B29: H0610-G1dh/none-Hi-Kn010G3/L0213-k0 (antibody, V domains shown)
VH: B1 VH
VL: B1 VL with L29P, L38I, I61R
notes: one-arm
B30: H0610-G1dh/none-Hi-Kn010G3/L0214-k0 (antibody, V domains shown)
VH: B1 VH
VL: B1 VL with S28P, L29P, I61R
notes: one-arm
B31: H0610-G1dh/none-Hi-Kn010G3/L0215-k0 (antibody, V domains shown)
VH: B1 VH
VL: B1 VL with S28P, L29P, L38I, I61S
notes: one-arm
B32: H0610-G1dh/none-Hi-Kn010G3/L0216-k0 (antibody, V domains shown)
VH: B1 VH
VL: B1 VL with S28P, I61R
notes: one-arm
B33: H0610-G1dh/none-Hi-Kn010G3/L0217-k0 (antibody, V domains shown)
VH: B1 VH
VL: B1 VL with S25P, I61R
notes: one-arm
B34: H0610-G1dh/none-Hi-Kn010G3/L0218-k0 (antibody, V domains shown)
VH: B1 VH
VL: B1 VL with I61R, G94Y
notes: one-arm
B35: H0610-G1dh/none-Hi-Kn010G3/L0219-k0 (antibody, V domains shown)
VH: B1 VH
VL: B1 VL with L38I, I61R
notes: one-arm
B36: H0610-G1dh/none-Hi-Kn010G3/L0220-k0 (antibody, V domains shown)
VH: B1 VH
VL: B1 VL with S28P, I61R, G94Y
notes: one-arm
B37: H0610-G1dh/none-Hi-Kn010G3/L0223-k0 (antibody, V domains shown)
VH: B1 VH
VL: B1 VL with L29P, L38I, F60L, I61S, G94Y
notes: one-arm
B38: H0610-G1dh/none-Hi-Kn010G3/L0224-k0 (antibody, V domains shown)
VH: B1 VH
VL: B1 VL with L29P, L38I, I61P, G94Y
notes: one-arm
B39: H0610-G1dh/none-Hi-Kn010G3/L0226-k0 (antibody, V domains shown)
VH: B1 VH
VL: B1 VL with L29P, L38I, I61S, G94I
notes: one-arm
B40: H0610-G1dh/none-Hi-Kn010G3/L0227-k0 (antibody, V domains shown)
VH: B1 VH
VL: B1 VL with L29P, L38I, I61S, G94L
notes: one-arm
B41: H0610-G1dh/none-Hi-Kn010G3/L0228-k0 (antibody, V domains shown)
VH: B1 VH
VL: B1 VL with L29P, L38I, I61S, G94V
notes: one-arm
B42: H0610-G1dh/none-Hi-Kn010G3/L0229-k0 (antibody, V domains shown)
VH: B1 VH
VL: B1 VL with L29P, L38I, I61S, G94Y, G96S
notes: one-arm
B43: H0610-G1dh/none-Hi-Kn010G3/L0230-k0 (antibody, V domains shown)
VH: B1 VH
VL: B1 VL with L29P, L38I, I61S, G94Y, G96T
notes: one-arm
B44: H0610-G1dh/none-Hi-Kn010G3/L0231-k0 (antibody, V domains shown)
VH: B1 VH
VL: B1 VL with L29P, L38I, I61S, G94Y, V99W
notes: one-arm
B45: H0610-G1dh/none-Hi-Kn010G3/L0232-k0 (antibody, V domains shown)
VH: B1 VH
VL: B1 VL with Q27E, I61S
notes: one-arm
B46: H0610-G1dh/none-Hi-Kn010G3/L0233-k0 (antibody, V domains shown)
VH: B1 VH
VL: B1 VL with S28E, I61S
notes: one-arm
B47: H0610-G1dh/none-Hi-Kn010G3/L0234-k0 (antibody, V domains shown)
VH: B1 VH
VL: B1 VL with S28E, L29P, I61R
notes: one-arm
B48: H0610-G1dh/none-Hi-Kn010G3/L0237-k0 (antibody, V domains shown)
VH: B1 VH
VL: B1 VL with S28E, L29P, L38I, I61S, G94Y
notes: one-arm
B49: H0610-G1dh/none-Hi-Kn010G3/L0238-k0 (antibody, V domains shown)
VH: B1 VH
VL: B1 VL with Q27E, S28P, L29P, I61S, G94Y
notes: one-arm

Target: T1, human GPC3 (human, UniProt P51654 25-563)
T1 construct: range 25-563; soluble analyte; also called soluble human GPC3; glypican 3
Assay: SPR

T1 sequence (P51654 25-563 limits assumed): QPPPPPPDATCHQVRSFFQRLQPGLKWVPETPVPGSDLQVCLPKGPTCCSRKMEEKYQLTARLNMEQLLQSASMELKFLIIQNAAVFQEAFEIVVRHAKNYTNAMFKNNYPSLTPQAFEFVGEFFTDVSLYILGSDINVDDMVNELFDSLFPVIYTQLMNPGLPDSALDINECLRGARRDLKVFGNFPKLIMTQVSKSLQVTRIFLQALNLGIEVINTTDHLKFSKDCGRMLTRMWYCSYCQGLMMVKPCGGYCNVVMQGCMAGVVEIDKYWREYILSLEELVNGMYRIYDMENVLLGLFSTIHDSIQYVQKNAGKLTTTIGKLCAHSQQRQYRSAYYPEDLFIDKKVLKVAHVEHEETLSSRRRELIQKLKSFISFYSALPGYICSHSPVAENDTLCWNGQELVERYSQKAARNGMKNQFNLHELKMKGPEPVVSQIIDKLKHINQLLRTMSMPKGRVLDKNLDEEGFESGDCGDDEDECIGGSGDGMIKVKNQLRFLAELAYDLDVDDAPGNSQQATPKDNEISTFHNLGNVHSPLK

Binder | Kd
B1 | 4.78 nM
B2 | 3.38 nM
B3 | 3.86 nM
B4 | 0.573 nM
B5 | 4.84 nM
B6 | 2.66 nM
B7 | 4.38 nM
B8 | 3.28 nM
B9 | 2.16 nM
B10 | 1.25 nM
B11 | 2.36 nM
B12 | 1.01 nM
B13 | 1.28 nM
B14 | 2.6 nM
B15 | 2.12 nM
B16 | 0.973 nM
B17 | 3.38 nM
B18 | 0.211 nM
B19 | 0.699 nM
B20 | 2.83 nM
B21 | 3.84 nM
B22 | 4.48 nM
B23 | 3.51 nM
B24 | 1.08 nM
B25 | 4.92 nM

Binder | Kd
B26 | 1.04 nM
B27 | 1.22 nM
B28 | 1.01 nM
B29 | 1.25 nM
B30 | 0.657 nM
B31 | 1.64 nM
B32 | 1.86 nM
B33 | 1.79 nM
B34 | 1.99 nM
B35 | 2.28 nM
B36 | 1.36 nM
B37 | 0.475 nM
B38 | 0.243 nM
B39 | 0.093 nM
B40 | 0.408 nM
B41 | 0.202 nM
B42 | 1.2 nM
B43 | 4 nM
B44 | 0.589 nM
B45 | 5.38 nM
B46 | 3.55 nM
B47 | 0.778 nM
B48 | 1.31 nM
B49 | 0.637 nM
